# Measured values: patent US20250051449A1 (SURFACE ONCOLOGY, published 2025)
# Changes are numbered by the printed parent chain.
# T1: human CD112R expressed on Jurkat cells (human, UniProt Q6DKI7 1-326)
# T1 construct: whole, on cells; Used for both Jurkat-CD112R OE cells and wild type Jurkat cells; which cells is said under assay; also called PVRIG; Jurkat-CD112R OE
# T1 sequence (looked up): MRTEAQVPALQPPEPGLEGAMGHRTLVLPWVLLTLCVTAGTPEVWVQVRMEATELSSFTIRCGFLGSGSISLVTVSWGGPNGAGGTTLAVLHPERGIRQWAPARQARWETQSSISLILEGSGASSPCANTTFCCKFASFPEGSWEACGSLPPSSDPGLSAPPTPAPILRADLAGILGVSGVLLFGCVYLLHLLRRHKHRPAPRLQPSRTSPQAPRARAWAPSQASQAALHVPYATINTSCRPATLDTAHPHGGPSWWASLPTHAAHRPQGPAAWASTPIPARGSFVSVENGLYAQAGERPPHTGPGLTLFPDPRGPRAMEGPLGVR
# B1: Antibody 46 (antibody, V domains shown)
# VH: EVQLVESGGGLVQPGRSLRLSCTASGFTFGDYAMSWFRQAPGKGLEWVGFIGSKAYGGTTEYTASVKGRFTISRDGSKSIAYLQMNSLKTEDTAVYYCARGPRRYTYGMDVWGQGTTVTVSS
# VL: DIQMTQSPSSLSASVGDRVTITCRASQSISSYLNWYQQKPGKAPKLLIYAASSLQSGVPSRFSGSGSGTDFTLTISSLQPEDFATYYCQQSSTPLTFGGGTKVEIK
# notes: in the mouse tumor studies it was used as mouse IgG2a; also called antibody clone number 46; clone 46
# B2: Antibody 32 (antibody, V domains shown)
# VH: QVQLVQSGAEVKKPGSSVKVSCKASGGTFSSYAISWVRQAPGQGLEWMGGIIPISGTANYAQKFQGRVTITADESTSTAYMELSSLRSEDTAVYYCARDTGRGYTRHFWFDPWGQGTLVTVSS
# VL: B1 VL with S92D, T93I, P94L, L95Y
# notes: Purified as IgG; compared with an IgG1 isotype control and detected with anti-human IgG Fc; also called antibody clone number 32; parent clone 32
# B3: Antibody 36 (antibody, V domains shown)
# VH: B2 VH with S30A, S31T, I52F, I54L
# VL: B1 VL with S92D, T93I, P94L, L95Y
# notes: Purified as IgG; compared with an IgG1 isotype control and detected with anti-human IgG Fc; also called antibody clone number 36; clone 36
# B4: Antibody 33 (antibody, V domains shown)
# VH: B2 VH with S30G, S31N, S55P, T57I
# VL: B1 VL with S92D, T93I, P94L, L95Y
# notes: Purified as IgG; compared with an IgG1 isotype control and detected with anti-human IgG Fc; also called antibody clone number 33; clone 33
# B5: Antibody 58 (antibody, V domains shown)
# VH: B1 VH with A55F, T59E
# VL: B1 VL
# notes: Purified as IgG; compared with an IgG1 isotype control and detected with anti-human IgG Fc; also called antibody clone number 58; clone 58
# B6: Antibody 34 (antibody, V domains shown)
# VH: B2 VH with Y32A, I52F, T57H
# VL: B1 VL with S92D, T93I, P94L, L95Y
# notes: Purified as IgG; compared with an IgG1 isotype control and detected with anti-human IgG Fc; also called antibody clone number 34; clone 34
# B7: Antibody 35 (antibody, V domains shown)
# VH: B2 VH with Y32A, G50N, S55V, T57I
# VL: B1 VL with S92D, T93I, P94L, L95Y
# notes: Purified as IgG; compared with an IgG1 isotype control and detected with anti-human IgG Fc; also called antibody clone number 35; clone 35
# Target: T1, human CD112R expressed on Jurkat cells
# Experiment: flow cytometry competition on Jurkat-CD112R OE cells; competitor biotinylated his-tagged human CD112
# Procedure: The ability of anti-CD112R antibodies to block CD112 binding to CD112R expressing cells was evaluated. 1×10⁵ Jurkat cells (acute T cell leukemia cell line, ATCC #TIB-152) that were engineered to over-express human CD112R (Jurkat-CD112R OE) were added to each well of a 96-well V bottom plate and stained with serial dilutions of either anti-CD112R antibodies or an IgG1 isotype control (highest concentration, 10 μg/mL) for 1 hour at 4° C. Cells were washed twice with PBS+2% FCS and resuspended with biotinylated his-tagged human CD112 (3 μg/mL) (BPS Bioscience, #71234) and PE Streptavidin (5 μg/mL) (Biolegend, #405204) in PBS+2% FCS and incubated at 2 hours at 4° C. Cells were subsequently washed twice and resuspended in PBS+2% FCS. Cellular data was acquired using a LSRFortessa X-20 (BD Biosciences) and analyzed with FlowJo software (Tree Star).
# Results are depicted in FIG. 2A and Table 2. […] Percent inhibition was calculated as [100−((test sample MFI/Max MFI)*100%)]
CD112 blocking max inhibition (%),IC50 [µg/mL],Binder
95.5,0.0162,B1
96,0.0236,B2
97.5,0.0244,B3
97.4,0.0219,B4
96.3,0.0028,B5
96.9,0.0132,B6
97.4,0.0162,B7

# Target: T2, mouse CD112R-hIgG4 fusion protein (mouse; human)
# T2 construct: also called soluble mouse CD112R; soluble murine CD112R
# Experiment: blocking ELISA: coated mouse CD112, antibody plus mouse CD112R-hIgG4 (2 ug/mL)
# Procedure: The ability of species cross reactive anti-CD112R antibodies to block mouse CD112R binding to mouse CD112 was evaluated by ELISA. Briefly. 96 well Nunc Maxisorp plates were coated with 1 μg/mL of mouse CD112 (Sino Biological. Cat #50318-M08H) in PBS overnight at 4° C. […] After blocking, plates were washed 6× with PBST. Next. 50 μL of anti-CD112R antibodies or isotype control (Biolegend. Cat #403502) in PBS+1% BSA were added at a final starting concentration of 40 μg/mL, with 2-fold serial dilutions. 50 μL of a mouse CD112R-hIgG4 fusion protein was also added to each well at a final concentration of 2 μg/mL. Plates were incubated at room temperature for 1.5 hours. Next plates were washed 6× with PBST and then incubated with anti-IgG4 HRP (Thermo Fisher, Cat #MA1-33437) in 100 μL for 1 hour at room temperature. Plates were then washed 6× with PBST and developed with TMB substrate (Life Technologies. Cat #002023). The reaction was stopped with an equal volume of stop solution (Life Technologies. Cat #SS04). Absorbance at 450 nm (O.D. 450) was measured on a SpectraMax plate reader.
# Results are depicted in FIG. 19 and Table 11. […] Percent inhibition was calculated as [100−((test sample O.D. 450/Max O.D. 450)*100%)] Max O.D. 450 was defined as absorbance at 450 nm in the absence of antibody.
row,mouse CD112/CD112R blocking ELISA max inhibition (%),Binder
1,88,B1
2,0,B2
3,41.6,B3
4,28.3,B4
5,85.7,B5
6,20.3,B6
7,24.2,B7

# Target: T2, mouse CD112R-hIgG4 fusion protein
# Experiment: ELISA: coated antibody, titrated mouse CD112R-hIgG4, anti-IgG4 HRP
# Procedure: The ability of anti-CD112R antibodies to bind to soluble mouse CD112R was evaluated by ELISA. Briefly. 96 well Nunc Maxisorp plates were coated with 1 μg/mL of anti-CD112R antibodies or isotype control (Biolegend. Cat #403502) in PBS overnight at 4° C. […] After blocking, plates were washed 6× with PBST. Next. 100 μL of a mouse CD112R-hIgG4 fusion protein in PBS+1% BSA was added at a final starting concentration of 10 μg/mL, with 4-fold serial dilutions. Plates were incubated at room temperature for 1.5 hours. Next plates were washed 6× with PBST and then incubated with anti-IgG4 HRP (Thermo Fisher, Cat #MA1-33437) in 100 μL for 1 hour at room temperature. Plates were then washed 6× with PBST and developed with TMB substrate (Life Technologies. Cat #002023). The reaction was stopped with an equal volume of stop solution (Life Technologies. Cat #SS04). Absorbance at 450 nm (O.D. 450) was measured on a SpectraMax plate reader.
row,EC50 [µg/mL],Binder
1,0.181,B1
2,0.27,B2
3,0.0251,B3
4,0.0383,B4
5,0.412,B5
6,0.0242,B6
7,0.0215,B7

# Target: T1, human CD112R expressed on Jurkat cells
# Experiment: flow cytometry, Jurkat cells over-expressing human CD112R, 0.63 ug/mL antibody
# Procedure: (§1) The ability of anti-CD112R antibodies to bind to CD112R expressed on cells was evaluated. 1×10⁵ Jurkat cells (acute T cell leukemia cell line, ATCC #TIB-152) that were either wild type or engineered to over-express human CD112R (Jurkat-CD112R OE) were added to each well of a 96-well V bottom plate and stained with either anti-CD112R antibodies or an IgG1 isotype control (0.63 μg/mL) for 1 hour at 4° C. Cells were washed twice with PBS+2% FCS and resuspended with Alexa Fluor® 647 anti-human IgG Fc antibody (Biolegend, Cat #409320) diluted 1:100 in PBS+2% FCS and incubated at 4° C. for 30 minutes. Cells were subsequently washed twice and resuspended in PBS+2% FCS. Cellular data was acquired using a LSRFortessa X-20 (BD Biosciences) and analyzed with FlowJo software (Tree Star).
# Results are depicted in FIG. 1. Quantitation of antibody binding to Jurkat-CD112R OE cells was assessed by the geometric mean fluorescent intensity (gMFI) of the Alexa Fluor® 647 signal.
row,gMFI (fold increase over isotype),Binder
1,23.8 fold increase over isotype,B1
2,27.9 fold increase over isotype,B2
3,31 fold increase over isotype,B3
4,34.2 fold increase over isotype,B4
5,37.3 fold increase over isotype,B5
6,33.8 fold increase over isotype,B6
7,32.1 fold increase over isotype,B7

# Target: T1, human CD112R expressed on Jurkat cells
# Experiment: flow cytometry, wild type Jurkat cells, 0.63 ug/mL antibody
# Procedure: as §1
row,gMFI (fold increase over isotype),Binder
1,4.2 fold increase over isotype,B1
2,2.5 fold increase over isotype,B2
3,3.5 fold increase over isotype,B3
4,3.4 fold increase over isotype,B4
5,4.5 fold increase over isotype,B5
6,3.8 fold increase over isotype,B6
7,3.3 fold increase over isotype,B7
